Experimental data from PMC8492067 (eLife, 2021).
Substitutions are numbered along the chain they refer to. Names may count otherwise.

How the values were obtained:
NrnCBh = target: T1, NrnCBh (Bartonella henselae, UniProt A0A0R4J6U7); experiment: DraCALA nitrocellulose spot binding, radiolabelled ligand
T1 construct: gene rnd1

crystal structure = target: the molecule itself; experiment: crystal structure
SEC-MALS = target: the molecule itself; experiment: SEC-MALS
NrnCBh (nano-RNase C) [1] = target: T2, NrnCBh (nano-RNase C) (Bartonella henselae, UniProt A0A0R4J6U7 1-206); experiment: DraCALA (nitrocellulose); DraCALA: 10 mM Tris-HCl pH 8, 100 mM NaCl, 5 mM CaCl2; temperature not stated; details: protein: recombinant; tags: tag-less (His6-SUMO removed by Ulp-1); chain copies: 8
T2 sequence: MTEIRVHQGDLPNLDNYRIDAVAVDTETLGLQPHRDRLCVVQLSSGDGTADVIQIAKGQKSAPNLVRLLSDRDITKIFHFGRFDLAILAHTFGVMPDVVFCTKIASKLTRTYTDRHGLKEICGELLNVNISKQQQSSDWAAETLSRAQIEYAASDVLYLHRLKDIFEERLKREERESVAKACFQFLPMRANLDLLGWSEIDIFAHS

NrnCBh (nano-RNase C) [2] = target: T2, NrnCBh (nano-RNase C); experiment: cryo-EM; DraCALA: 10 mM Tris-HCl pH 8, 100 mM NaCl, 5 mM CaCl2; temperature not stated; details: protein: recombinant; tags: tag-less (His6-SUMO removed by Ulp-1); chain copies: 8
NrnCBh (nano-RNase C) [3] = target: T2, NrnCBh (nano-RNase C); experiment: cryo-EM; only 3' dinucleotide resolved; DraCALA: 10 mM Tris-HCl pH 8, 100 mM NaCl, 5 mM CaCl2; temperature not stated; details: protein: recombinant; tags: tag-less (His6-SUMO removed by Ulp-1); chain copies: 8

Nc1nc2c(ncn2[C@@H]2O[C@H](COP(=O)(O)O[C@H]3[C@@H](O)[C@H](n4cnc5c(=O)[nH]c(N)nc54)O[C@@H]3COP(=O)(O)O)[C@@H](O)[C@H]2O)c(=O)[nH]1 [pGG]
Kd (NrnCBh): 17.7 nM

Nc1nc2c(ncn2[C@@H]2O[C@H](COP(=O)(O)O[C@H]3[C@@H](O)[C@H](n4cnc5c(=O)[nH]c(N)nc54)O[C@@H]3COP(=O)(O)O[C@H]3[C@@H](O)[C@H](n4cnc5c(N)ncnc54)O[C@@H]3COP(=O)(O)O)[C@@H](O)[C@H]2O)c(=O)[nH]1 [pAGG]
Kd (NrnCBh): 3490 nM

B1: Bartonella henselae nano-RNase C (NrnC), wild type (enzyme)
chain: T2 sequence
notes: also called NrnCBh; wild-type NrnCBh
stoichiometry N (crystal structure): 8

B2: Bartonella henselae NrnC L31A (enzyme)
chain: T2 sequence with L31A
notes: L-wedge mutant
stoichiometry N (SEC-MALS): 8

B3: Bartonella henselae NrnC Y151A (enzyme)
chain: T2 sequence with Y151A
stoichiometry N (SEC-MALS): 8

B4: Bartonella henselae NrnC D25A (enzyme)
chain: T2 sequence with D25A
stoichiometry N (SEC-MALS): 8

B5: Bartonella henselae NrnC H205A (enzyme)
chain: T2 sequence with H205A
stoichiometry N (SEC-MALS): 8

B6: Bartonella henselae NrnC H79A (enzyme)
chain: T2 sequence with H79A
notes: Phosphate cap mutant
stoichiometry N (SEC-MALS): 8

B7: Bartonella henselae NrnC K103A (enzyme)
chain: T2 sequence with K103A
notes: Phosphate cap mutant
stoichiometry N (SEC-MALS): 8

B8: Brucella melitensis nano-RNase C (NrnC), wild type (enzyme)
chain: MTIRFHRNDLPNLDNYQVDAVAIDTETLGLNPHRDRLCVVQISPGDGTADVIQIEAGQKKAPNLVKLLKDRSITKIFHFGRFDLAVLAHAFGTMPQPVFCTKIASKLTRTYTDRHGLKEICSELLDVSISKQQQSSDWAAEVLSQAQLEYAASDVLYLHRLKAVLEQRLERDGRTKQAEACFKFLPTRSELDLMGWAESDIFAHS
notes: also called NrnCBm
stoichiometry N (crystal structure): 8

AAAAAGG (ssRNA, 5' phosphate) [pAAAAAGG]
Kd (NrnCBh (nano-RNase C) [1]): 576 nM

AAAGG (ssRNA, 5' phosphate) [pAAAGG]
binding result (NrnCBh (nano-RNase C) [2]): binds

AGG (ssRNA, 5' phosphate) [pAGG]
binding result (NrnCBh (nano-RNase C) [3]): binds
